In test [1] the target is canine TNF-alpha (canine, UniProt P51742 77-233). The experiment in a line: cell-based or functional assay.
The target of test [2] is T1, complement C1q (from normal human serum) (human, UniProt P02745 23-245; P02746 28-253; P02747 29-245).
T1 construct: Native C1q in normal human serum, detected with a C1q reactive polyclonal antibody-HRP conjugate
As to the kind of experiment: C1q binding ELISA; fusion protein on plates coated with canine TNF (4 µg/ml), human serum as source of complement. How it is done:
The canine TNFR-HCB, canine TNFR-HCC and human TNFR-canine HCB fusion proteins were incubated with plates pre-coated with canine TNF (4 μg/ml). For comparison, a caninised monoclonal antibody (MAb, canine isotype HCB) with specificity to nerve growth factor (NGF) was incubated with plates coated with NGF. The plates were washed and incubated with normal or heat-killed human serum as a source of complement. Binding of complement C1q was detected using a C1q reactive polyclonal antibody-HRP conjugate.

canine TNF-alpha, sequence (P51742 77-233 limits assumed): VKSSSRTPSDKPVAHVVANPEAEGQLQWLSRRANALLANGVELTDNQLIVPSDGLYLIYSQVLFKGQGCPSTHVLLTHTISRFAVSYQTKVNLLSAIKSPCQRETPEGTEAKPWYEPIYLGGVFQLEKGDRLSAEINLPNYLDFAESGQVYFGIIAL
T1 sequence (P02745 23-245 limits assumed, chain 1 of 3): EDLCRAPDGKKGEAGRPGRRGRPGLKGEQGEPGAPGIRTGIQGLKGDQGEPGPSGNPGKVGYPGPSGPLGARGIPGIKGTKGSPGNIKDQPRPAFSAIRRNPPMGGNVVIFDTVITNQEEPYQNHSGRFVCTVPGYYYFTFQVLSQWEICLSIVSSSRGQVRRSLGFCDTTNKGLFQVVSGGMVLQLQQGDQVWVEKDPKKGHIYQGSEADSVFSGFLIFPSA
T1 sequence (P02746 28-253 limits assumed, chain 2 of 3): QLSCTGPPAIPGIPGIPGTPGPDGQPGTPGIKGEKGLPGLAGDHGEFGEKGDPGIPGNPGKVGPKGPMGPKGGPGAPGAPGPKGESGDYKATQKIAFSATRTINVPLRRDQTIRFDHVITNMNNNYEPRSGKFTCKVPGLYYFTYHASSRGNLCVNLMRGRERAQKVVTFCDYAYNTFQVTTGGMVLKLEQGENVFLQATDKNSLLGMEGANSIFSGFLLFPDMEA
T1 sequence (P02747 29-245 limits assumed, chain 3 of 3): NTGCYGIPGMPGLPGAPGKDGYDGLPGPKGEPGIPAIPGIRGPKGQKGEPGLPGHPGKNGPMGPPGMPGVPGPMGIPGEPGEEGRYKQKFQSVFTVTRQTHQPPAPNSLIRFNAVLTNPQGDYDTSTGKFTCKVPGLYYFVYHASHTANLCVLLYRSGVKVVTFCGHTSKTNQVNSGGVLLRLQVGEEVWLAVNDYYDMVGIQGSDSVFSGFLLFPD

B1: canine TNFR-HCC (caTNFRp50:ca IgGHCC Fc), SEQ ID NO:8 (Fc fusion)
chain: LVPHPRNRVKRAILCPQGKYIHPQDDSICCTKCHKGTYLYNDCPGPGLDTDCRECENGTFTASENHLRQCLSCSKCRKEMNQVEISPCTVYRDTVCGCRKNQYRFYWSETLFQCNNCSLCLNGTVQISCQEKQNTICTCHAGFFLREHECVSCVNCKKNTECGKLCLPPVETVKVPQDPGSTAKECECKCNCNNCPCPGCGLLGGPSVFIFPPKPKDILVTARTPTVTCVVVDLDPENPEVQISWFVDSKQVQTANTQPREEQSNGTYRVVSVLPIGHQDWLSGKQFKCKVNNKALPSPIEEIISKTPGQAHQPNVYVLPPSRDEMSKNTVTLTCLVKDFFPPEIDVEWQSNGQQEPESKYRMTPPQLDEDGSYFLYSKLSVDKSRWQRGDTFICAVMHEALHNHYTQISLSHSPGK
notes: Expressed in CHO cells; also called caTNFrecp60-HCC; canine TNFR-HCC fusion protein
As to B1, in test [1], the “inhibition of canine TNF-alpha bioactivity (1 ng/ml) in 293-HEK cells with NF-kB-EGFP reporter construct pTRH1; IC50” value is approximately 1 ng/ml. In test [2], the binding result is reported as “no binding”.

B2: canine TNFR-HCB (caTNFRp50:ca IgGHCB Fc), SEQ ID NO:7 (Fc fusion)
chain: LVPHPRNRVKRAILCPQGKYIHPQDDSICCTKCHKGTYLYNDCPGPGLDTDCRECENGTFTASENHLRQCLSCSKCRKEMNQVEISPCTVYRDTVCGCRKNQYRFYWSETLFQCNNCSLCLNGTVQISCQEKQNTICTCHAGFFLREHECVSCVNCKKNTECGKLCLPPVETVKVPQDPGSTPKRENGRVPRPPDCPKCPAPEMLGGPSVFIFPPKPKDTLLIARTPEVTCVVVDLDPEDPEVQISWFVDGKQMQTAKTQPREEQFNGTYRVVSVLPIGHQDWLKGKQFTCKVNNKALPSPIERTISKARGQAHQPSVYVLPPSREELSKNTVSLTCLIKDFYPPDIDVEWQSNGQQEPESKYRTTPPQLDEDGSYFLYSKLSVDKSRWQRGDTFICAVMHEALHNHYTQESLSHSPGK
notes: Expressed in CHO cells; also called caTNFrecp60-HCB; canine TNFR-HCB fusion protein
Consider B2, for which the “inhibition of canine TNF-alpha bioactivity (1 ng/ml) in 293-HEK cells with NF-kB-EGFP reporter construct pTRH1; IC50” value in test [1] was approximately 1 ng/ml. Further, in test [2], the binding result was “no binding”.

(Values after patent publication US20150037333A1 (NEXVET AUSTRALIA, published 2015).)
